Data as given in US20040106557A1.
Ends that are not written are not given here.

Key:
[1] = target: PSA-alpha-2-macroglobulin complex (PSA-A2M), purified (human) (UniProt P07288); assay: cell-based or functional assay
[2] = target: Prostate specific antigen (PSA), purified from human seminal fluid (human) (UniProt P07288); assay: inhibition IFMA: 200 µl fraction preincubated with PSA captured by MAb 5E4, then GST-C4 (167 nM); competitor GST-C-4

B1: chemically synthesized peptide C-4 with GA flanks (…) (peptide)
peptide: GACVAYCIEHHCWTCGA
modifications: disulfide (positions not given here); not fully specified (bridges); also: cyclic, disulphide bonds between cysteines, pairing of the four Cys not given here
- enzyme activity of A2M-complexed PSA (S-2586, OD 405 nm), 50-fold molar excess of peptide [1]: 2 fold

Binder: CVAYCIEHHCWTC (peptide, part only; not given: vector flanking residues, part only) [peptide cleaved from GST-C-4 by thrombin (about 3 kD, estimated 31 residues)]
- reduction of the binding of GST-peptide to PSA (%) [2]: 30%
